Experimental data from article PMC13397619.

B1: NLV2 TCR alpha chain (CDR3α only) (parent)
chain: AGPMKTSYDKVI
partner: NLVGMVATV

Variants of: B1
Experiment: T-Switch: Jurkat TCRβ−/− cells expressing a CDR3 saturation-mutagenesis library, stained with two peptide-HLA-A*02:01 tetramers (original and novel peptide) plus anti-CD3, FACS-sorted into four gates, gDNA sequenced
Conditions: with HLA-A*02:01 with peptide … (NLV 2-2, the original bait), tetramers 1 µg/mL, 30 min on ice, DP and SW gates expanded about 10 days between rounds ('two to three rounds of selection' in the Methods), gate SP: higher = more of the variant in the gate that binds the original peptide and not the novel one = retained original binding. Fold enrichment of the CDR3 variant in one FACS gate of a two-tetra, unresolved parent, parent is a CDR3 fragment, scale: fold enrichment, numbering: sequential-on-construct, sequence …

| Variant | enrichment |
| --- | --- |
| […] (CDR3 as printed); A1R derived by comparing it with the table's wild-type CDR3 AGPMKTSYDKVI | 0 |
| […] (CDR3 as printed); A1S derived by comparing it with the table's wild-type CDR3 AGPMKTSYDKVI | 0.551 |
| […] (CDR3 as printed); A1T derived by comparing it with the table's wild-type CDR3 AGPMKTSYDKVI | 0.262 |
| […] (CDR3 as printed); A1V derived by comparing it with the table's wild-type CDR3 AGPMKTSYDKVI | 0 |
| […] (CDR3 as printed); A1W derived by comparing it with the table's wild-type CDR3 AGPMKTSYDKVI | 0 |
| […] (CDR3 as printed); A1Y derived by comparing it with the table's wild-type CDR3 AGPMKTSYDKVI | 0.416 |
| […] (CDR3 as printed); D9A derived by comparing it with the table's wild-type CDR3 AGPMKTSYDKVI | 0 |
| […] (CDR3 as printed); D9C derived by comparing it with the table's wild-type CDR3 AGPMKTSYDKVI | 0 |
| […] (CDR3 as printed); D9E derived by comparing it with the table's wild-type CDR3 AGPMKTSYDKVI | 0 |
| […] (CDR3 as printed); D9F derived by comparing it with the table's wild-type CDR3 AGPMKTSYDKVI | 0 |
| […] (CDR3 as printed); D9G derived by comparing it with the table's wild-type CDR3 AGPMKTSYDKVI | 0 |
| […] (CDR3 as printed); D9H derived by comparing it with the table's wild-type CDR3 AGPMKTSYDKVI | 0.283 |
| […] (CDR3 as printed); D9I derived by comparing it with the table's wild-type CDR3 AGPMKTSYDKVI | 0 |
| […] (CDR3 as printed); D9K derived by comparing it with the table's wild-type CDR3 AGPMKTSYDKVI | 0 |
| […] (CDR3 as printed); D9L derived by comparing it with the table's wild-type CDR3 AGPMKTSYDKVI | 0 |
| […] (CDR3 as printed); D9M derived by comparing it with the table's wild-type CDR3 AGPMKTSYDKVI | 0.433 |
| […] (CDR3 as printed); D9N derived by comparing it with the table's wild-type CDR3 AGPMKTSYDKVI | 0 |
| […] (CDR3 as printed); D9P derived by comparing it with the table's wild-type CDR3 AGPMKTSYDKVI | 0 |
| […] (CDR3 as printed); D9Q derived by comparing it with the table's wild-type CDR3 AGPMKTSYDKVI | 0 |
| […] (CDR3 as printed); D9R derived by comparing it with the table's wild-type CDR3 AGPMKTSYDKVI | 0 |
| […] (CDR3 as printed); D9S derived by comparing it with the table's wild-type CDR3 AGPMKTSYDKVI | 0 |

| Variant | enrichment |
| --- | --- |
| […] (CDR3 as printed); D9T derived by comparing it with the table's wild-type CDR3 AGPMKTSYDKVI | 0 |
| […] (CDR3 as printed); D9V derived by comparing it with the table's wild-type CDR3 AGPMKTSYDKVI | 0 |
| […] (CDR3 as printed); D9W derived by comparing it with the table's wild-type CDR3 AGPMKTSYDKVI | 0 |
| […] (CDR3 as printed); D9Y derived by comparing it with the table's wild-type CDR3 AGPMKTSYDKVI | 0 |
| […] (CDR3 as printed); G2A derived by comparing it with the table's wild-type CDR3 AGPMKTSYDKVI | 0.952 |
| […] (CDR3 as printed); G2C derived by comparing it with the table's wild-type CDR3 AGPMKTSYDKVI | 0 |
| […] (CDR3 as printed); G2D derived by comparing it with the table's wild-type CDR3 AGPMKTSYDKVI | 0 |
| […] (CDR3 as printed); G2E derived by comparing it with the table's wild-type CDR3 AGPMKTSYDKVI | 0.387 |
| […] (CDR3 as printed); G2F derived by comparing it with the table's wild-type CDR3 AGPMKTSYDKVI | 0 |
| […] (CDR3 as printed); G2H derived by comparing it with the table's wild-type CDR3 AGPMKTSYDKVI | 0 |
| […] (CDR3 as printed); G2I derived by comparing it with the table's wild-type CDR3 AGPMKTSYDKVI | 0 |
| […] (CDR3 as printed); G2K derived by comparing it with the table's wild-type CDR3 AGPMKTSYDKVI | 0 |
| […] (CDR3 as printed); G2L derived by comparing it with the table's wild-type CDR3 AGPMKTSYDKVI | 0 |
| […] (CDR3 as printed); G2M derived by comparing it with the table's wild-type CDR3 AGPMKTSYDKVI | 0.715 |
| […] (CDR3 as printed); G2N derived by comparing it with the table's wild-type CDR3 AGPMKTSYDKVI | 0 |
| […] (CDR3 as printed); G2P derived by comparing it with the table's wild-type CDR3 AGPMKTSYDKVI | 0.351 |
| […] (CDR3 as printed); G2Q derived by comparing it with the table's wild-type CDR3 AGPMKTSYDKVI | 0 |
| […] (CDR3 as printed); G2R derived by comparing it with the table's wild-type CDR3 AGPMKTSYDKVI | 0 |
| […] (CDR3 as printed); G2S derived by comparing it with the table's wild-type CDR3 AGPMKTSYDKVI | 0 |
| […] (CDR3 as printed); G2T derived by comparing it with the table's wild-type CDR3 AGPMKTSYDKVI | 10.1 |
| […] (CDR3 as printed); G2V derived by comparing it with the table's wild-type CDR3 AGPMKTSYDKVI | 0 |

| Variant | enrichment |
| --- | --- |
| […] (CDR3 as printed); G2W derived by comparing it with the table's wild-type CDR3 AGPMKTSYDKVI | 0 |
| […] (CDR3 as printed); G2Y derived by comparing it with the table's wild-type CDR3 AGPMKTSYDKVI | 0 |
| […] (CDR3 as printed); I12A derived by comparing it with the table's wild-type CDR3 AGPMKTSYDKVI | 2.32 |
| […] (CDR3 as printed); I12C derived by comparing it with the table's wild-type CDR3 AGPMKTSYDKVI | 0 |
| […] (CDR3 as printed); I12D derived by comparing it with the table's wild-type CDR3 AGPMKTSYDKVI | 0 |
| […] (CDR3 as printed); I12E derived by comparing it with the table's wild-type CDR3 AGPMKTSYDKVI | 0.34 |
| […] (CDR3 as printed); I12F derived by comparing it with the table's wild-type CDR3 AGPMKTSYDKVI | 2.21 |
| […] (CDR3 as printed); I12G derived by comparing it with the table's wild-type CDR3 AGPMKTSYDKVI | 0 |
| […] (CDR3 as printed); I12H derived by comparing it with the table's wild-type CDR3 AGPMKTSYDKVI | 0 |
| […] (CDR3 as printed); I12K derived by comparing it with the table's wild-type CDR3 AGPMKTSYDKVI | 8.2 |
| […] (CDR3 as printed); I12L derived by comparing it with the table's wild-type CDR3 AGPMKTSYDKVI | 0.259 |
| […] (CDR3 as printed); I12M derived by comparing it with the table's wild-type CDR3 AGPMKTSYDKVI | 0 |
| […] (CDR3 as printed); I12N derived by comparing it with the table's wild-type CDR3 AGPMKTSYDKVI | 0.107 |
| […] (CDR3 as printed); I12P derived by comparing it with the table's wild-type CDR3 AGPMKTSYDKVI | 0 |
| […] (CDR3 as printed); I12Q derived by comparing it with the table's wild-type CDR3 AGPMKTSYDKVI | 0 |
| […] (CDR3 as printed); I12R derived by comparing it with the table's wild-type CDR3 AGPMKTSYDKVI | 0 |
| […] (CDR3 as printed); I12S derived by comparing it with the table's wild-type CDR3 AGPMKTSYDKVI | 0 |
| […] (CDR3 as printed); I12T derived by comparing it with the table's wild-type CDR3 AGPMKTSYDKVI | 0 |
| […] (CDR3 as printed); I12V derived by comparing it with the table's wild-type CDR3 AGPMKTSYDKVI | 11.6 |
| […] (CDR3 as printed); I12W derived by comparing it with the table's wild-type CDR3 AGPMKTSYDKVI | 0 |
| […] (CDR3 as printed); I12Y derived by comparing it with the table's wild-type CDR3 AGPMKTSYDKVI | 0 |

| Variant | enrichment |
| --- | --- |
| […] (CDR3 as printed); K5A derived by comparing it with the table's wild-type CDR3 AGPMKTSYDKVI | 23.5 |
| […] (CDR3 as printed); K5C derived by comparing it with the table's wild-type CDR3 AGPMKTSYDKVI | 0 |
| […] (CDR3 as printed); K5D derived by comparing it with the table's wild-type CDR3 AGPMKTSYDKVI | 37.8 |
| […] (CDR3 as printed); K5E derived by comparing it with the table's wild-type CDR3 AGPMKTSYDKVI | 21.3 |
| […] (CDR3 as printed); K5F derived by comparing it with the table's wild-type CDR3 AGPMKTSYDKVI | 0 |
| […] (CDR3 as printed); K5G derived by comparing it with the table's wild-type CDR3 AGPMKTSYDKVI | 12.9 |
| […] (CDR3 as printed); K5H derived by comparing it with the table's wild-type CDR3 AGPMKTSYDKVI | 4.24 |
| […] (CDR3 as printed); K5I derived by comparing it with the table's wild-type CDR3 AGPMKTSYDKVI | 3.95 |
| […] (CDR3 as printed); K5L derived by comparing it with the table's wild-type CDR3 AGPMKTSYDKVI | 0 |
| […] (CDR3 as printed); K5M derived by comparing it with the table's wild-type CDR3 AGPMKTSYDKVI | 4.77 |
| […] (CDR3 as printed); K5N derived by comparing it with the table's wild-type CDR3 AGPMKTSYDKVI | 0 |
| […] (CDR3 as printed); K5P derived by comparing it with the table's wild-type CDR3 AGPMKTSYDKVI | 9.21 |
| […] (CDR3 as printed); K5Q derived by comparing it with the table's wild-type CDR3 AGPMKTSYDKVI | 7.86 |
| […] (CDR3 as printed); K5R derived by comparing it with the table's wild-type CDR3 AGPMKTSYDKVI | 0 |
| […] (CDR3 as printed); K5S derived by comparing it with the table's wild-type CDR3 AGPMKTSYDKVI | 4.22 |
| […] (CDR3 as printed); K5T derived by comparing it with the table's wild-type CDR3 AGPMKTSYDKVI | 4.91 |
| […] (CDR3 as printed); K5V derived by comparing it with the table's wild-type CDR3 AGPMKTSYDKVI | 1.08 |
| […] (CDR3 as printed); K5W derived by comparing it with the table's wild-type CDR3 AGPMKTSYDKVI | 5.12 |
| […] (CDR3 as printed); K5Y derived by comparing it with the table's wild-type CDR3 AGPMKTSYDKVI | 0 |
| […] (CDR3 as printed); K10A derived by comparing it with the table's wild-type CDR3 AGPMKTSYDKVI | 0 |
